T1: human FcγRIIb (human, UniProt P31994 43-217)
T1 construct: also called FcγIIB
T1 sequence: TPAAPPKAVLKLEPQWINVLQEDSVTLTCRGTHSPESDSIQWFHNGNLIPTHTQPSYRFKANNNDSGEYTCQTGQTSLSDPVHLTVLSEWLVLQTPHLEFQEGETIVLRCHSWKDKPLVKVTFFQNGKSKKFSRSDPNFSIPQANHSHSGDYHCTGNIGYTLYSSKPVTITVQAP

T2: human FcγRIIa type H (human, UniProt P12318 36-217)
T2 construct: Whole entry named for FcγRIIa allotype H131 (AAH20823.1); also called FcγRIIaH; FcγRIIa(H)
T2 sequence: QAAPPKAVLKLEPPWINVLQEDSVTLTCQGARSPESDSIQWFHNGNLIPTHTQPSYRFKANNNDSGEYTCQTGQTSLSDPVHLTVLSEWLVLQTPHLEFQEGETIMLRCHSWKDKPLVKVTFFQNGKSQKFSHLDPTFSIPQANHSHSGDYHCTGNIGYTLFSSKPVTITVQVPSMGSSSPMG

T3: human FcγRIIb (human, UniProt P31994 43-217)
T3 construct: also called FcγIIB
T3 sequence: T1 sequence

T4: human FcγRIIa type R (human, UniProt P12318 36-217)
T4 construct: also called FcγRIIaR; FcγRIIa(R)
T4 chain: T2 sequence with H133R

T5: human FcγRIIa type H (human, UniProt P12318 36-217)
T5 construct: also called FcgRIIaH; FcγRIIa(H)
T5 sequence: T2 sequence

T6: human FcγRIIb (human, UniProt P31994 43-217, limits assumed)
T6 construct: also called FcgRIIb; FcγIIB
T6 sequence: T1 sequence

B1: IL6R-BP193/IL6R-L (antibody, human IgG1)
heavy: QVQLQESGPGLVKPSETLSLTCAVSGHSISHDHAWSWVRQPPGEGLEWIGFISYSGITNYNPSLQGRVTISRDNSKNTLYLQMNSLRAEDTAVYYCARSLARTTAMDYWGEGTLVTVSSASTKGPSVFPLAPSSKSTSGGTAALGCLVKDYFPEPVTVSWNSGALTSGVHTFPAVLQSSGLYSLSSVVTVPSSSLGTQTYICNVNHKPSNTKVDKKVEPKSCDKTHTCPPCPAPDLLGGDSVFLFPPKPKDTLMISRTPEVTCVVVDVSDEDGEVKFNWYVDGVEVHNAKTKPREEQYNSTYRVVSVLTVLHQDWLNGKEYKCKVSNKALPKPIEKTISKAKGQPREPQVYTLPPSRDELTKNQVSLTCLVKGFYPSDIAVEWESNGQPENNYKTTPPVLDSDGSFFLYSKLTVDKSRWQQGNVFSCSVMHEALHNHYTQESLSLSP
light: DIQMTQSPSSLSASVGDRVTITCRASQDISSYLNWYQQKPGKAPKLLIYYTSRLHSGVPSRFSGSGSGTDFTFTISSLQPEDIATYYCQQGNTLPYTFGQGTKVEIK
notes: Anti-human IL-6 receptor human IgG1 variant; copies: 2 + 2
B2: IL6R-BP192/IL6R-L (antibody, human IgG1)
heavy: B1 heavy with Y298D
light: B1 light
notes: as for B1
B3: IL6R-B3/IL6R-L (antibody, human IgG1)
heavy: not shown
light: B1 light
notes: IL6R-G1d with K439E (EU numbering); copies: 2 + 2
B4: IL6R-2B169/IL6R-L (antibody, human IgG1)
heavy: B1 heavy with D235E, D270H, G273P, V325I, K332A
light: B1 light
notes: copies: 2 + 2
B5: IL6R-BP112/IL6R-L (antibody, human IgG1)
heavy: B1 heavy with D235E, D270H, K332A
light: B1 light
notes: copies: 2 + 2
B6: IL6R-BP126/IL6R-L (antibody, human IgG1)
heavy: B1 heavy with D235E, D270H, G273P, K328L, K332A
light: B1 light
notes: copies: 2 + 2
B7: IL6R-BP117/IL6R-L (antibody, human IgG1)
heavy: B1 heavy with D235E, D270H, G273P, K328D, K332A
light: B1 light
notes: copies: 2 + 2
B8: IL6R-BP911/IL6R-L (antibody, human IgG1)
heavy: B1 heavy with D235E, D270H, G273P
light: B1 light
notes: copies: 2 + 2
B9: IL6R-BP078/IL6R-L (antibody, human IgG1)
heavy: B1 heavy with D235E, D270H, G273P, K332M
light: B1 light
notes: copies: 2 + 2
B10: IL6R-BP136/IL6R-L (antibody, human IgG1)
heavy: B1 heavy with D235E, D270H, G273P, K328A, K332A
light: B1 light
notes: copies: 2 + 2
B11: IL6R-2B002/IL6R-L (antibody, human IgG1)
heavy: B1 heavy with D270H, G273P, K332A
light: B1 light
notes: copies: 2 + 2
B12: IL6R-2B128/IL6R-L (antibody, human IgG1)
heavy: B1 heavy with D235E, D270H, G273P, Y298D, K332A
light: B1 light
notes: copies: 2 + 2
B13: IL6R-BP142/IL6R-L (antibody, human IgG1)
heavy: B1 heavy with D235E, D270H, G273P, K328N, K332A
light: B1 light
notes: copies: 2 + 2
B14: IL6R-BP120/IL6R-L (antibody, human IgG1)
heavy: B1 heavy with D235E, D270H, G273P, K328E, K332A
light: B1 light
notes: copies: 2 + 2
B15: IL6R-BP107/IL6R-L (antibody, human IgG1)
heavy: B1 heavy with D235E, D270E, G273P, K332A
light: B1 light
notes: copies: 2 + 2
B16: IL6R-BP214/IL6R-L (antibody)
heavy: B1 heavy with L236Y, G239D, D270H, G273P, Y298D, K328D
light: B1 light
notes: copies: 2 + 2
B17: IL6R-BP210/IL6R-L (antibody, human IgG1)
heavy: B1 heavy with D235E, G239D, K332R
light: B1 light
notes: The common L chain is IL6R-L; copies: 2 + 2
B18: IL6R-BP205/IL6R-L (antibody, human IgG1)
heavy: B1 heavy with D270H, Y298D, K332R
light: B1 light
notes: as for B17
B19: IL6R-BP204/IL6R-L (antibody, human IgG1)
heavy: B1 heavy with D270H, K328A, K332R
light: B1 light
notes: as for B17

Results on 19 molecules are retold here after patent US20140105889A1 (published 2014).

Residue numbers refer to the chain shown, from its start. Names and notes keep the numbering of the source.

The first assay has as its target T1, human FcγRIIb. The assay is described as follows: SPR (Biacore); KD of parent IL6R-B3/IL6R-L for FcγRIIb divided by KD of the variant for FcγRIIb. Background: Surface plasmon resonance follows binding to a sensor surface in real time, without labels.
From the text: Furthermore, KD(IIaR)/KD(IIb) and KD(IIaH)/KD(IIb) in the table respectively represent the value obtained by dividing the KD value of each variant for FcγRIIaR by the KD value of each variant for FcγRIIb, and the value obtained by dividing the KD value of each variant for FcγRIIaH by the KD value of each variant for FcγRIIb.
On to B1, for which the “KD(IIb) of the parent polypeptide/KD(IIb) of the altered polypeptide” value came out at 25.5.
The same measure, in the same setting: the figure for B2 is 27.3.

The next assay concerns the target T2, human FcγRIIa type H. The assay is described as follows: SPR (Biacore), FcγR over captured antibody; amount bound relative to IL6R-BF648/IL6R-L x100.
B3: the relative binding is 1600 relative value (IL6R-BF648/IL6R-L = 100).
Still for that read-out and setting: the figure for B4 is 83 relative value (IL6R-BF648/IL6R-L = 100); for B5 it is 113 relative value (IL6R-BF648/IL6R-L = 100); for B6 it is 132 relative value (IL6R-BF648/IL6R-L = 100).
On to B7, for which the relative binding is 96 relative value (IL6R-BF648/IL6R-L = 100).
Still for that read-out and setting: as for B8, the figure is 108 relative value (IL6R-BF648/IL6R-L = 100); as for B9, 89 relative value (IL6R-BF648/IL6R-L = 100).
Consider B10, for which the relative binding is 103 relative value (IL6R-BF648/IL6R-L = 100).
The same measure, in the same setting: as for B11, the figure is 147 relative value (IL6R-BF648/IL6R-L = 100); as for B12, 37 relative value (IL6R-BF648/IL6R-L = 100).
Still for that read-out and setting: as for B13, the figure is 97 relative value (IL6R-BF648/IL6R-L = 100).

The target in another assay is T7, human FcγRIa (human, UniProt P12314 16-292, limits assumed).
T7 construct: also called CD64
The description is as above.
T7 sequence (P12314 16-292 limits assumed): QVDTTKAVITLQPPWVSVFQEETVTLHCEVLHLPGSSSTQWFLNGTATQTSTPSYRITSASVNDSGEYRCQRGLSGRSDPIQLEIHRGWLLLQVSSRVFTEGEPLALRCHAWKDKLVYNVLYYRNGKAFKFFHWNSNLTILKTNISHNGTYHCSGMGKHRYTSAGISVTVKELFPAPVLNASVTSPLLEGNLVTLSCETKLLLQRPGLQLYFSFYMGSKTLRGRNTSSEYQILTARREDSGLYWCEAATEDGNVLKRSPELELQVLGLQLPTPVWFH
Take B3: the relative binding is 145 relative value (IL6R-BF648/IL6R-L = 100).
On the same count and under the same terms, as for B4, the figure is 73 relative value (IL6R-BF648/IL6R-L = 100); as for B5, 119 relative value (IL6R-BF648/IL6R-L = 100).
The same measure, in the same setting: the figure for B6 is 113 relative value (IL6R-BF648/IL6R-L = 100); for B7 it is 124 relative value (IL6R-BF648/IL6R-L = 100); for B8 it is 52 relative value (IL6R-BF648/IL6R-L = 100).
Consider B14, for which the relative binding was 125 relative value (IL6R-BF648/IL6R-L = 100).
For B15, the relative binding was 123 relative value (IL6R-BF648/IL6R-L = 100).
Same read-out and setting: as for B10, the figure is 117 relative value (IL6R-BF648/IL6R-L = 100); as for B11, 118 relative value (IL6R-BF648/IL6R-L = 100).
Same read-out and setting: as for B12, the figure is 95 relative value (IL6R-BF648/IL6R-L = 100).
On the same count and under the same terms, the figure for B13 is 98 relative value (IL6R-BF648/IL6R-L = 100).

The target of a further assay is T3, human FcγRIIb. Described as above.
With B3, the relative binding is 58 relative value (IL6R-BF648/IL6R-L = 100).
Same read-out and setting: the figure for B4 is 104 relative value (IL6R-BF648/IL6R-L = 100); for B5 it is 157 relative value (IL6R-BF648/IL6R-L = 100); for B6 it is 103 relative value (IL6R-BF648/IL6R-L = 100).
On the same count and under the same terms, the figure for B7 is 118 relative value (IL6R-BF648/IL6R-L = 100).
On the same count and under the same terms, the figure for B8 is 119 relative value (IL6R-BF648/IL6R-L = 100).
Turning to B14, the relative binding is 114 relative value (IL6R-BF648/IL6R-L = 100).
Same read-out and setting: as for B15, the figure is 118 relative value (IL6R-BF648/IL6R-L = 100); as for B10, 119 relative value (IL6R-BF648/IL6R-L = 100); as for B12, 103 relative value (IL6R-BF648/IL6R-L = 100).
As for B13, the relative binding was 106 relative value (IL6R-BF648/IL6R-L = 100).

The target in another assay is T4, human FcγRIIa type R. Described as above.
As for B3, the relative binding is 625 relative value (IL6R-BF648/IL6R-L = 100).
Still for that read-out and setting: as for B5, the figure is 340 relative value (IL6R-BF648/IL6R-L = 100); as for B6, 167 relative value (IL6R-BF648/IL6R-L = 100); as for B7, 166 relative value (IL6R-BF648/IL6R-L = 100).
On the same count and under the same terms, as for B8, the figure is 101 relative value (IL6R-BF648/IL6R-L = 100); as for B14, 175 relative value (IL6R-BF648/IL6R-L = 100); as for B15, 147 relative value (IL6R-BF648/IL6R-L = 100).
Same read-out and setting: the figure for B9 is 101 relative value (IL6R-BF648/IL6R-L = 100); for B10 it is 159 relative value (IL6R-BF648/IL6R-L = 100); for B11 it is 103 relative value (IL6R-BF648/IL6R-L = 100).
In the case of B12, the relative binding is 87 relative value (IL6R-BF648/IL6R-L = 100).
Same read-out and setting: as for B13, the figure is 103 relative value (IL6R-BF648/IL6R-L = 100).

The target of a further assay is T8, human FcγRIIIa type V (human, UniProt P08637 17-208, limits assumed).
T8 construct: also called FcγRIIIaV; FcγRIIIa(V)
T8 sequence (P08637 other isoform, or with tags, fused parts or gaps limits assumed): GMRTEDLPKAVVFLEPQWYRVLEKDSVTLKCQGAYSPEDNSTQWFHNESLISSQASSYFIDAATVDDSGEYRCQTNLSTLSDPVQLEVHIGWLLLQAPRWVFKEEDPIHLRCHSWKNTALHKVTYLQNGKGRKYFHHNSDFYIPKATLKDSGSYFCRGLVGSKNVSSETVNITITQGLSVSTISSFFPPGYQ
The description is as above.
Take B3: the relative binding is 3260 relative value (IL6R-BF648/IL6R-L = 100).
With B4, the relative binding is 94 relative value (IL6R-BF648/IL6R-L = 100).
Still for that read-out and setting: the figure for B15 is 129 relative value (IL6R-BF648/IL6R-L = 100); for B9 it is 91 relative value (IL6R-BF648/IL6R-L = 100); for B11 it is 147 relative value (IL6R-BF648/IL6R-L = 100).
The same measure, in the same setting: the figure for B12 is 96 relative value (IL6R-BF648/IL6R-L = 100).

For a further assay, the target named is T5, human FcγRIIa type H. The assay is described as follows: SPR (Biacore); binding amount divided by that of control IL6R-BF648/IL6R-L, x100.
Method: (§1) According to the following method, relative binding activities were calculated for the results of analyzing interactions with the respective FcγRs.
With B16, the relative binding activity was 285 % of IL6R-BF648/IL6R-L.
Still for that read-out and setting: the figure for B17 is 279 % of IL6R-BF648/IL6R-L.
Consider B18, for which the relative binding activity was 108 % of IL6R-BF648/IL6R-L.
Still for that read-out and setting: as for B19, the figure is 137 % of IL6R-BF648/IL6R-L.

For a further assay, the target named is T9, human FcγRIa (human, UniProt P12314 16-292, limits assumed).
T9 construct: also called FcgRIa; CD64
Described as above.
T9 sequence (P12314 16-292 limits assumed): as the sequence (P12314 16-292 limits assumed) above
Method: as §1
On to B16, for which the relative binding activity was 36 % of IL6R-BF648/IL6R-L.
Regarding B17, the relative binding activity was 57 % of IL6R-BF648/IL6R-L.
As for B18, the relative binding activity was 97 % of IL6R-BF648/IL6R-L.
The same measure, in the same setting: the figure for B19 is 110 % of IL6R-BF648/IL6R-L.

Another assay concerns the target T6, human FcγRIIb. The assay is described as above.
Method: as §1
Regarding B16, the relative binding activity is 174 % of IL6R-BF648/IL6R-L.
The same measure, in the same setting: as for B17, the figure is 187 % of IL6R-BF648/IL6R-L; as for B18, 167 % of IL6R-BF648/IL6R-L; as for B19, 165 % of IL6R-BF648/IL6R-L.
